Experimental data from patent US20060240417A1, “Agent controlling the apoptosis induction by p73” (Hisamitsu Pharmaceutical Co., Inc., priority 2002, published 2006).

T1: p73alpha (UniProt O15350 O15350:1-636)
T1 sequence: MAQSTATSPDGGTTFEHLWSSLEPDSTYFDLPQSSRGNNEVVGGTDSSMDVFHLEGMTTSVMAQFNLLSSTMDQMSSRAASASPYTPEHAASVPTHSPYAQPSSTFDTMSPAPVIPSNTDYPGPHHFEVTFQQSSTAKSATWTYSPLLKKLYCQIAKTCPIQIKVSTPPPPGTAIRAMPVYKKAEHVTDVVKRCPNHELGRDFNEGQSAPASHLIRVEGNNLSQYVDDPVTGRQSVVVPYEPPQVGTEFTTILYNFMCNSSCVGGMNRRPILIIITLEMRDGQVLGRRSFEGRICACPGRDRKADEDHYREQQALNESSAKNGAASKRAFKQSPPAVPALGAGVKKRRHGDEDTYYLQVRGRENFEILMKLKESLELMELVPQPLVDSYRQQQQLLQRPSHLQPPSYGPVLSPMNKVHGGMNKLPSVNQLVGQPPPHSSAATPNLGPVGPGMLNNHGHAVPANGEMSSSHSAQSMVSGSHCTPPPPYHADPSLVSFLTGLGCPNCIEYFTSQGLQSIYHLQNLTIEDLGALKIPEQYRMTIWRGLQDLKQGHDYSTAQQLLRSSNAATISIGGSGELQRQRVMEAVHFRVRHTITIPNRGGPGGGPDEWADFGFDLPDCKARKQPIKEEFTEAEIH

T2: p73beta (UniProt O15350-2 O15350-2:1-499)
T2 sequence: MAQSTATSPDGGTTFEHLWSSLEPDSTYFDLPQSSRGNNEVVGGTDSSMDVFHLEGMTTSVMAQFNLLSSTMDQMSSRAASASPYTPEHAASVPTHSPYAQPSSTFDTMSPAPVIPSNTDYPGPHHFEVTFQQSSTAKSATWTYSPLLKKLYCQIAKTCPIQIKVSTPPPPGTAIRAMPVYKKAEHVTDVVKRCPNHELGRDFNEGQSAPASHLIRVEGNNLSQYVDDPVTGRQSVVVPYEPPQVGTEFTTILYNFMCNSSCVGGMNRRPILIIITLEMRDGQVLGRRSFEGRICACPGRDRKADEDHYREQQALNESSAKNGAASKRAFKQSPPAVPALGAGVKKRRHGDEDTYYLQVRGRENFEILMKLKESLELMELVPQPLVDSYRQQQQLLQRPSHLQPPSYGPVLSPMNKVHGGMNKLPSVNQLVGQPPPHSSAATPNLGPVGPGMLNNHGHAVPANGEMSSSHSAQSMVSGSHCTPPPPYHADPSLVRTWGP

B1: deltaNp73 promoter 61-bp probe (dsDNA)
DNA 1: GTGCGGTCCAACACATCACCGGGCAAGCTGAGGCCTGCCCCGGACTTGGATGAATACTCAT
DNA 2: ATGAGTATTCATCCAAGTCCGGGGCAGGCCTCAGCTTGCCCGGTGATGTGTTGGACCGCAC

Tests used:
[1] = test system: p73α and ΔNp73α in SH-SY5Y cells; assay: Immunoblot (Western blotting) of cisplatin-treated tumor cells; type: cell-based, human; conditions: tumor cells treated with cisplatin, RT-PCR
Method: The present inventors ascertained that treating tumor cells with the DNA inhibiting agent cisplatin causes apoptosis of the tumor cells in a dose-dependent manner. Production of proteins p53 and p73α was confirmed by Western blotting. The tumor cells in this case are preferably neuroblastoma cells, but may also be other central or peripheral nervous system tumor cells.
The cells were lysed in EBC buffer (50 mM Tris-HCl, pH 8.0/120 mM NaCl/0.5% Nonidet P-40) containing 1 mM phenylmethylsulfonyl fluoride. The lysate was clarified by centrifugation at 14,000 rpm at 4° C. for 15 minutes. The protein concentration was determined by the Bradford procedure. For immunoblot analysis, the proteins were resolved by SDS […] gel electrophoresis and transferred to a nitrocellulose membrane. The membrane filter was blocked with 5% powdered milk in TBST (10 mM Tris-HCl, pH 8.0/150 mM NaCl/0.1% Tween 20) for 1 hour at room temperature. […] The bound secondary antibody was detected by enhanced chemiluminescence (ECL, Amersham Pharmacia Biotech) according to the manufacturer's protocol.
The whole cell protein (40 μg) was extracted from each culture. The expression levels of p73α and p53 were each determined by immunoblot analysis (described above) using p73α-specific antibody (Ab-1) or p53-specific antibody (DO-1). […]

p73alpha = target: T1, p73alpha; assay: EMSA; supershifted by anti-HA; poly(dI-dC), 3.125 mM MgCl2, room temperature; conditions: tags: HA tag; TNT reticulocyte lysate; label: 32P
p73beta = target: T2, p73beta; assay: as above; conditions: tags: HA tag; TNT reticulocyte lysate; label: 32P

Row | Molecule | production of p73α and ΔNp73α at mRNA and protein level [1] | binding result (p73alpha) | binding result (p73beta)
1 | N.N.[Cl][Pt][Cl] [cisplatin] | induces production of p73α and ΔNp73α |  | 
2 | B1 |  | binds | binds
